Results from article PMC7279355 (International Journal of Molecular Sciences, 2020).
Ends that are not written are not given here.

biological target: T1, PD-L1, histidine (His)-tagged (UniProt Q9NZQ7 19-238); test: AlphaScreen or HTRF; AlphaLISA kit AL356 HV/C/F (PerkinElmer), competition: biotin-conjugated PD-1 on streptavidin-coated donor beads, His-tagged PD-L1 on anti-His acceptor beads; 2 uL each of inhibitor dilution, PD-L1 (25 nM), PD-1 (25 nM) and the two beads in 10 uL; 25 °C, 90 min; IC50 from sigmoidal fit; conditions: both partners purified
T1 construct: PD-L1 (programmed cell death-ligand 1) of the AlphaLISA PD-1/PD-L1 kit; Held on anti-His-conjugated acceptor beads; also called His-tagged PD-L1; programmed cell death-ligand 1; source: bought: PerkinElmer AlphaLISA assay kit (AL356 HV/C/F)
T1 sequence (Q9NZQ7 19-238): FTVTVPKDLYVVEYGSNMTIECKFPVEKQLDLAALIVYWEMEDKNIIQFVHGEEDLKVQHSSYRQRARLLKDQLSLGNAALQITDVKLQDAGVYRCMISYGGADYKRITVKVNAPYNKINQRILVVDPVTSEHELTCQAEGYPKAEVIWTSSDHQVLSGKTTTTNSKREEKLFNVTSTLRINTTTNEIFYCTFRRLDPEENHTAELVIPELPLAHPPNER

Binder	IC50 [µM]
WRYNQ (not fully specified; X (position 3) = biphenyl-conjugated bromotyrosine) [WRXNQ]	163
Tyr-Tyr-Cys (not fully specified (residue 2)) [YXC]	465
NYR (not fully specified; X (position 2) = biphenyl-conjugated bromotyrosine) [NXR]	982
YRRRR (not fully specified; X (position 1) = biphenyl-conjugated bromotyrosine) [XRRRR]	436
QYQ (not fully specified; X (position 2) = biphenyl-conjugated bromotyrosine) [QXQ]	1960
YHP (not fully specified; X (position 1) = biphenyl-conjugated bromotyrosine) [XHP]	359
YGGGGG (not fully specified; X (position 1) = biphenyl-conjugated bromotyrosine) [XGGGGG]	846
YGG (not fully specified; X (position 1) = biphenyl-conjugated bromotyrosine) [XGG]	6500
SYR (not fully specified; X (position 2) = biphenyl-conjugated bromotyrosine) [SXR]	796
GYG (not fully specified; X (position 2) = biphenyl-conjugated bromotyrosine) [GXG]	676
WYG (not fully specified; X (position 2) = biphenyl-conjugated bromotyrosine) [WXG]	405
WRYNN (not fully specified; X (position 3) = biphenyl-conjugated bromotyrosine) [WRXNN]	157
YGGG (not fully specified; X (position 1) = biphenyl-conjugated bromotyrosine) [XGGG]	6770
RYN (not fully specified; X (position 2) = biphenyl-conjugated bromotyrosine) [RXN]	405
YNH (not fully specified; X (position 1) = biphenyl-conjugated bromotyrosine) [XNH]	313
CYA (not fully specified; X (position 2) = biphenyl-conjugated bromotyrosine) [CXA]	665
YGGGG (not fully specified; X (position 1) = biphenyl-conjugated bromotyrosine) [XGGGG]	648
ERYNK (not fully specified; X (position 3) = biphenyl-conjugated bromotyrosine) [ERXNK]	15.6
YNL (not fully specified; X (position 1) = biphenyl-conjugated bromotyrosine) [XNL]	855
CYR (not fully specified; X (position 2) = biphenyl-conjugated bromotyrosine) [CXR]	550
YCSE (not fully specified; X (position 1) = biphenyl-conjugated bromotyrosine) [XCSE]	1560
